± gives the standard deviation.

This series in a line: protein stability index of a GFP-peptide fusion (GPS, HEK-293T) (PSI 1-6); higher = more stable.
Where [1] appears, read: treatment: DMSO, c terminus: a fixed tail appended.
The mark [2] stands for this setting: treatment: MLN4924 1 uM, 8 h, c terminus: a fixed tail appended.
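Further: 24-mer peptide tiles fused after GFP, lentivirally expressed, FACS-sorted into six equal bins by GFP/DsRed ratio, decoded by Illumina sequencing, PSI is the read-weighted mean bin number.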

Sequence MYYRGSAAAIIVYDITKEETFSTL [RAB22A] registered a protein stability index under setting [1] of 2.75 ± 0.69 and a protein stability index under setting [2] of 2.72 ± 0.84.

With QRAPQLPTWWPLPTQVPAAEDYLT [SPAG8], the protein stability index under setting [1] is 3.12 ± 0.2 and the protein stability index under setting [2] amounted to 3.23 ± 0.21.

With QTNSETAVVALTQDQPSEAATGGA [HDAC6], the protein stability index amounted to 5.31 ± 0.2 under setting [1] and 5.42 ± 0.062 under setting [2].

AEHEITELTATFTKFDRDGNRILD [PKD2L1]: the protein stability index came to 4.76 ± 0.24 under setting [1] and 4.95 ± 0.19 under setting [2].

Take PNGVQLSPAEDFVLVAETTMARIR [APMAP]: the protein stability index runs as follows: under setting [1], 3.21 ± 0.21; under setting [2], 3.5 ± 0.22.

Take TSRRSGVGLAVVNGQLMAVGGFDG [KLHL20]: the protein stability index runs as follows: under setting [1], 2.99 ± 0.23; under setting [2], 2.94 ± 0.41.

Consider LAGPNDRSDVEKGGKIIMPPSALD [UFD1], for which the protein stability index reads like this: under setting [1], 4.77 ± 0.11; under setting [2], 4.97 ± 0.2.

Turning to LPQETNLTLKVCKPQAPQKLDPTL, the protein stability index runs as follows: under setting [1], 3.58 ± 0.36; under setting [2], 3.91 ± 0.49.

Regarding FPRLNRNKYMVTDGAAYIGNFDWV [PLD5], the protein stability index by setting is: under setting [1], 2.32 ± 0.89; under setting [2], 2.32 ± 0.23.

With SKVLSLQDLCCRAVVSCTPVHLVD [RAB40B], the protein stability index reads like this: under setting [1], 3.01 ± 0.17; under setting [2], 2.85 ± 0.32.

With YGETCFPKGRFERKRNPSRKKQHI [ZNF24], the protein stability index is 2.93 ± 0.62 under setting [1] and 3.24 ± 0.6 under setting [2].

The sequence HRDMKPDNILLDEHDTWLSYKSH [STK32A] gave a protein stability index (treatment: DMSO, c terminus: native) of 3.68 ± 0.27 and a protein stability index (treatment: MLN4924 1 uM, 8 h, c terminus: native) of 3.94 ± 0.27.

For MIARCLLAVRSLRRVGGSRILLRM [NLN], the protein stability index worked out at 2.35 ± 0.74 under setting [1] and 2.05 ± 0.39 under setting [2].

In the case of PYFKSNDVVCKNQDELRNRSVKVI [FAN1], the protein stability index was found to be 3.78 ± 0.16 under setting [1] and 4.01 ± 0.33 under setting [2].

As for KEEKEDEISLEDLIERERSALGPN [ZC3H15], the protein stability index is 5.31 ± 0.35 under setting [1] and 5.26 ± 0.37 under setting [2].

As for DQGGPVEILPFLYLGSAYHASKCE [DUSP5], the protein stability index came to 2.34 ± 0.27 under setting [1] and 2.43 ± 0.14 under setting [2].

As for ALEGSALANGRALSAGSPPVPPGW [DLX1], the protein stability index amounted to 3.59 ± 0.15 under setting [1] and 3.86 ± 0.17 under setting [2].

On to VLRVEQQPHLPLLSTLAGIRVMVH [SCNN1D], for which the protein stability index by setting is: under setting [1], 2.31 ± 0.25; under setting [2], 2.26 ± 0.082.

Regarding TTLDEFPLTRLGQLKACTNFDDIL [KCNG1], the protein stability index worked out at 2.99 ± 0.26 under setting [1] and 2.92 ± 0.22 under setting [2].

On to ECKKLFQVPEEMSRCRNSYTEQEL [DLC1], for which the protein stability index came out at 3.76 ± 0.092 under setting [1] and 4 ± 0.22 under setting [2].

With RSEALAVDGAGKPGAEEAQDPEGK [CHGA], the protein stability index by setting is: under setting [1], 5.61 ± 0.15; under setting [2], 5.561 ± 0.045.

As for ASSASLEPMWSGSTMRRMALRPTA [EMID1], the protein stability index runs as follows: under setting [1], 3.43 ± 0.23; under setting [2], 3.64 ± 0.43.

DLSSESSIKKKFLKRKGKTDSPWI [EHMT1]: the protein stability index runs as follows: under setting [1], 3.42 ± 0.37; under setting [2], 3.66 ± 0.26.

With RFHDPSPAQSHTLQANDVFHKQQW [NET1], the protein stability index is, setting by setting: under setting [1], 3.33 ± 0.11; under setting [2], 3.4 ± 0.29.

SLLRPLNSLAALDLSGIQTSDAAF [ZER1]: the protein stability index is, setting by setting: under setting [1], 2.87 ± 0.15; under setting [2], 2.9 ± 0.24.

As to DYSHRQKEQDVEKELRDGGEQDTW [NFE2L1], the protein stability index is, setting by setting: under setting [1], 5.63 ± 0.5; under setting [2], 5.46 ± 0.44.

As to KNIIHKTSGKRYVYRFVCDLQNLL [ETS2], the protein stability index amounted to 2.96 ± 0.48 under setting [1] and 2.69 ± 0.6 under setting [2].

In turn, NQGLNVMVWNQNGKSPSITFEYTL [ADAMTSL2] came in with a protein stability index under setting [1] of 3.01 ± 0.3 and a protein stability index under setting [2] of 2.64 ± 0.53.

GEGVDKLSLPARNQAGYFMLPTVI [ALDH8A1]: the protein stability index came out at 2.19 ± 0.18 under setting [1] and 2.36 ± 0.18 under setting [2].

Turning to TSSNLGSQYQCENGVSGPSQDLLP [TBX5], the protein stability index by setting is: under setting [1], 4.78 ± 0.16; under setting [2], 4.6 ± 0.15.

As to EESEPGTLVGNVAQDLGLKMTDLL [PCDHGC5], the protein stability index came to 4.34 ± 0.081 under setting [1] and 4.29 ± 0.55 under setting [2].

SWEGLAVLDSLLLTLLPQLQEAWQ [RSAD1] returned a protein stability index under setting [1] of 3.27 ± 0.35 and a protein stability index under setting [2] of 3.22 ± 0.52.

Consider PSLSPGAFSYSSSSRFSSSRLLGS [PRPH], for which the protein stability index under setting [1] was found to be 3.29 ± 0.23 and the protein stability index under setting [2] was found to be 3.28 ± 0.16.

For LLFKYQMKEPITKAEILESVIKNY [MAGEA10], the protein stability index reads like this: under setting [1], 2.53 ± 0.32; under setting [2], 2.74 ± 0.29.

As to GSSRSPGSKARAEGRGPVTPLHLD [PLEKHN1], the protein stability index by setting is: under setting [1], 4.91 ± 0.16; under setting [2], 4.74 ± 0.21.

On to NGQKPLGAAEPITVKFANNPSQKT [ELAVL3], for which the protein stability index reads like this: under setting [1], 4.85 ± 0.36; under setting [2], 4.83 ± 0.23.

As to NAEMVQQTTYLEDRPMFMLQCAME [LOXL2], the protein stability index stood at 3.11 ± 0.25 under setting [1] and 3 ± 0.1 under setting [2].

Regarding DAILYYYQSGGRLKRPVNVPFDIF [KCNA4], the protein stability index amounted to 2.58 ± 0.54 under setting [1] and 2.52 ± 0.63 under setting [2].

As for EELRQEWEAKQEKIKSEEIEITFS [FAM50A], the protein stability index runs as follows: under setting [1], 4.98 ± 0.11; under setting [2], 4.95 ± 0.35.

Take KIIICSQNEEYLLTYINEDRISTT [PLK2]: the protein stability index runs as follows: under setting [1], 2.02 ± 0.35; under setting [2], 2.06 ± 0.36.

Consider KEHWTPEGHSIVGFAMYYFTYDPW [SAT1], for which the protein stability index reads like this: under setting [1], 3.05 ± 0.44; under setting [2], 3.1 ± 0.43.

Turning to SEKAMLRSRIEEQSQLICILKRRS [CCDC89], the protein stability index under setting [1] stood at 3.07 ± 0.2 and the protein stability index under setting [2] was 3.19 ± 0.15.

LIPGDAYTDYVATRWYRAPELLVG [CDKL4]: the protein stability index was determined as 2.18 ± 0.22 under setting [1] and 2.18 ± 0.071 under setting [2].

On to QNPEAIAAAAMYTFLPDNFSPAKP [MYORG], for which the protein stability index reads like this: under setting [1], 3.79 ± 0.15; under setting [2], 3.86 ± 0.2.

In the case of PFAYLTVLDLSKSLSAALLTAALL [POMT2], the protein stability index under setting [1] came out at 2.98 ± 0.23 and the protein stability index under setting [2] was 3.02 ± 0.16.

Consider DRAAKRLSLESEGAGEGAAASPEL [TPPP], for which the protein stability index by setting is: under setting [1], 5.38 ± 0.14; under setting [2], 5.32 ± 0.37.

For KRKGIKSSIGRLFGKKEKGRLIQL [PPFIA4], the protein stability index came to 2.46 ± 0.31 under setting [1] and 2.22 ± 0.22 under setting [2].

QVSPVRRAPSRRHGVRAKVQPQAR [CPN1] returned a protein stability index under setting [1] of 4.88 ± 0.12 and a protein stability index under setting [2] of 4.68 ± 0.13.

VDGRATQKLIVNLKPEKSYSFVLT [PTPRD]: the protein stability index by setting is: under setting [1], 2.4 ± 0.51; under setting [2], 2.37 ± 0.66.

As to LCSSPLEAETPPNGPDCGYGSFHQ [ATE1], the protein stability index is, setting by setting: under setting [1], 4.28 ± 0.18; under setting [2], 4.24 ± 0.079.

For DRFYVINYLVRLSFHNLKFDCSTA [ZNF277], the protein stability index is 2.98 ± 0.88 under setting [1] and 2.54 ± 0.43 under setting [2].

As for EIFVDCDINREQLNDIFHLLKSHT [TPH1], the protein stability index is, setting by setting: under setting [1], 2.19 ± 0.3; under setting [2], 2.19 ± 0.35.

Turning to GNLQLDCLAQGWKQYQQRAFGWFR [RTP4], the protein stability index by setting is: under setting [1], 2.3 ± 0.5; under setting [2], 2.24 ± 0.23.

Values taken from the supplement of paper PMC10567573.
